Data published in patent US20230136301A1, “Corticosteriod Reduction in Treatment with Anti-CD38 Antibody” (Janssen Biotech, Inc., priority 2021, published 2023).

System: patients with RRMM
Test: PAVO Part 3: infusion-related reactions (IRRs)
Description: Safety was assessed, with an emphasis on IRRs, while corticosteroids were reduced and discontinued.
The purpose of Part 3 was to evaluate the safety of daratumumab 1,800 mg SC delivery without predose and postdose corticosteroids after a 3-week, 2-week, and 1-week tapering schedule to assess the safety of corticosteroid-free SC daratumumab administration. […] In conjunction, patients also received a 3-week, 2-week, or 1-week steroid tapering schedule (FIG. 2). The 3-week tapering schedule (corticosteroid-free by Cycle 1 Day 22) consisted of methylprednisolone (MP) given orally (PO)/IV pre-dose (Cycle 1 Day 1, 100 mg; Cycle 1 Day 8, 60 mg; Cycle 1 Day 15, 30 mg) and PO post-dose (Cycle 1 Day 1, 20 mg for 2 days; Cycle 1 Day 8, 20 mg for 1 day; Cycle 1 Day 15, 20 mg for 1 day). The 2-week tapering schedule (corticosteroid-free by Cycle 1 Day 15) consisted of MP given PO/IV pre-dose (Cycle 1 Day 1, 100 mg; Cycle 1 Day 8, 60 mg) and PO post-dose (Cycle 1 Day 1, 20 mg for 2 days; Cycle 1 Day 8, 20 mg for 1 day). The 1-week tapering schedule (corticosteroid-free by Cycle 1 Day 8) consisted of dexamethasone 20 mg administered IV pre-dose on Cycle 1 Day 1, without post-dose administration.
The 3-week, 2-week and 1-week steroid tapering schedules were assessed by “3+3” design, followed by cohort expansion to approximately 15 patients (3-week and 2-week tapering cohorts) or 12 patients (1-week tapering cohort). The dose-limiting toxicity (DLT) assessment period in the 3-week, 2-week and 1-week tapering cohorts were Cycle 1 Day 1 through Cycle 2 Day 4, Cycle 1 Day 1 through Cycle 1 Day 25, and Cycle 1 Day 1 through Cycle 1 Day 11, respectively. […] Grade 3 or 4 IRRs only qualified as DLTs if they occurred during corticosteroid reduction or discontinuation (not during Cycle 1 Day 1). For the 3-week and 2-week groups, IRRs reported at Cycle 1 Day 1 were not considered DLTs, as corticosteroids had not yet been reduced or discontinued. Up to approximately 12 patients could be enrolled in the 1-week tapering schedule to assess safety, including IRRs.
Safety assessments included treatment-emergent adverse events (TEAEs), serious adverse events, and IRRs. All toxicities were graded according to the National Cancer Institute's Common Terminology for the Classification of Adverse Events (NCI-CTCAE) Version 4.03 (National Cancer Institute. Common Terminology Criteria for Adverse Events (CTCAE): Version 4.03.).

DARA SC: 1,800 mg daratumumab co-formulated with 30,000 U rHuPH20 (2,000 U/mL, 15 mL), manual subcutaneous injection
Patients with an IRR (1-week taper): 2 (16.7%) n (%)
Patients with an IRR (2-week taper): 3 (20.0%) n (%)
Patients with an IRR (3-week taper): 0 (0%) n (%)
Grade 4 IRRs (Total n=42): no grade 4 IRRs reported
IRR of increased blood pressure (Total n=42): 1 (2.4%) n (%)
IRR of oropharyngeal pain (Total n=42): 1 (2.4%) n (%)
IRR of tachycardia (Total n=42): 1 (2.4%) n (%)
IRRs meeting the definition of a DLT (Total n=42): None of the IRRs met the definition of a DLT
Patients with an IRR (Total n=42): 5 (11.9%) n (%)
Number of grade 3 IRRs (increased blood pressure, 2-week taper, resolved on day of onset): 1
